Experimental data from patent US20040082509A1.

Target: JNKs
Assay: cell-based or functional assay

## GRKKRRQRRRPPDTYRPKRPTTLNLFPQVPRSQDT [L-TAT-IB1 peptide]
  phosphorylation of GST-jun (1-89) by JNKs pulled down from UV-irradiated HeLa or IL-1β treated βTC-3 cell extracts; peptide at 25 µM: 25 µM

## GRKKRRQRRRPPEEPHKHRPTTLRLTTLGAQDS [L-TAT-IB2 peptide]
  phosphorylation of GST-jun (1-89) by JNKs pulled down from UV-irradiated HeLa or IL-1β treated βTC-3 cell extracts; peptide at 25 µM: 25 µM
